Here are results for 18 sequences from the supplement of paper PMC9170038.

The data set has as its system MS2 coat protein. Put plainly: apparent KD of MS2 coat protein; designed switch direction (-1 OFF switch, 1 ON switch): -1; higher = weaker reporter binding. In short, it runs like this: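 Each step of the titration lasted 0.8–1.5 h at the lowest concentration and 10–20 min at the highest. The protein, SNAP-549-labelled MS2 coat protein, went from 0.7 or 1.5 nM doubling to 3 µM over RNA switches transcribed on Illumina chips by stalled E. coli RNA polymerase. Normalised cluster fluorescence was curve-fitted, and the per-design median over clusters is given as apparent KD.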

Setting [1] is: input ligand: microRNA oligo, concentration not stated.
[2] abbreviates: Eterna round: R95, input ligand: FMN 200 uM.
Where [3] appears, read: Eterna round: R95, input ligand: microRNA oligo, concentration not stated.
Where [4] appears, read: Eterna round: R95, input ligand: none.

With “AAACAAACGGGAGGAUAUCGACAUAUUCAACUGCGAGAAGGCCCAAAAGACAUGAGGAUCACCCAUGUAAACCGGGUGAGAAAU [Rimabi] (Eterna round: R96, puzzle: Exclusion NG 1)”, the “apparent KD of MS2 coat protein” value (input ligand: FMN 200 uM) came out at 0.934 µM, the “apparent KD of MS2 coat protein” value under setting [1] was 0.185 µM and the “apparent KD of MS2 coat protein” value (input ligand: none) was determined as 0.215 µM.
Take “AAACCCUGAGGAUAUACAUAACAACAAACCCUCACGUGCCAACAUGAGGAUCACCCAUGUAGAAGGCAGGCCAA [Mod R3 Insanara 6 - Jieux - Exclusion 2] (Eterna round: R97, puzzle: Exclusion 2)”: the “apparent KD of MS2 coat protein” value by setting is: (input ligand: FMN 200 uM) 0.0643 µM; (input ligand: none) 0.0187 µM.
On to “AAACCGCAUGUCAGGAUAUCCAGUCCGACUAGCUAGGAGAAGGGACAUGAGGAUCACCCAUGUUUCAUGGCUCG [Anveonat] (puzzle: Brourd's mod of Exclusion 4)”, for which the “apparent KD of MS2 coat protein” value is 0.0376 µM under setting [2], 0.0196 µM under setting [3] and 0.019 µM under setting [4].
In the case of “AAACCGGGCGCACCUCAGUCACAUGAGGAUCACCCAUGUUCUGAGGAUAUGCAUCCAAACGGAACGCAGAAGGCGGAACGUAAC [Bibidianer] (Eterna round: R96, puzzle: Exclusion NG 3)”, the “apparent KD of MS2 coat protein” value was found to be 0.0105 µM (input ligand: FMN 200 uM), 0.00852 µM under setting [1] and 0.013 µM (input ligand: none).
Regarding “AAACCUAUAGGAUAUACAUGAGGAUCACCCAUGUUGCGAUUUUUUAGGUAACAGAUCCGUAGAAGGGUAGGGCA [Retebi] (puzzle: Exclusion 3)”, under setting [3], the “apparent KD of MS2 coat protein” value is 0.0283 µM.
For “AAACUAGUAGAGGAUAUUCCAGGCAGUGUUUGAGAAGAAGGCUACACAUGAGGAUCACCCAUGUGGCCUGGUGG [Riedbi] (puzzle: Exclusion 6)”, the “apparent KD of MS2 coat protein” value under setting [3] was 0.0128 µM.
“AAAGAACAUGAGGAUCACCCAUGUGAGGAUAUGUAAGGAUAGGACCGAAGAAGCGAGAACAGAAGGCACAGAGG [JR_Exclu1_Sub069] (puzzle: Exclusion 1)”: the “apparent KD of MS2 coat protein” value was determined as 0.035 µM under setting [2], 0.0234 µM under setting [3] and 0.0186 µM under setting [4].
In the case of “AAAGAGCGAGGAUAUACGUAUCGGUGCGGCCAGCCGAUGUGACAUGAGGAUCACCCAUGUAGAAGGCGCAGAAA [Excls2-IX] (puzzle: Exclusion 2)”, under setting [3], the “apparent KD of MS2 coat protein” value stood at 0.0234 µM.
As to “AAAGGACGAGGAUAUACAUGAGGAUCACCCAUGUAAAAAGCAUAAUAAAAUAACUUAUGUAGAAGGCGUCCAAA [Mat - Exclusion 3 - Eli mod - D91] (Eterna round: R96, puzzle: Exclusion 3)”, under setting [1], the “apparent KD of MS2 coat protein” value came out at 0.0185 µM.
For “AAAGUGUGAGGAUAUUAGUUGUACGUCAAUAGACGUAUAAGUGAGAAGGCACAUGAGGAUCACCCAUGUUCCUG [Omei Ex4 Mod of Mat's R95 mod of Omei v5] (Eterna round: R97, puzzle: Exclusion 4)”, the “apparent KD of MS2 coat protein” value is, setting by setting: (input ligand: FMN 200 uM) 0.0997 µM; (input ligand: none) 0.0219 µM.
Turning to “AAAUAAAGGUAGGAUAUCGAUUUUAAUUAAUAUCGAGAAGGGUCAACAUGAGGAUCACCCAUGUCAGCAUGUAA [LRO-Excl6-01-Rocketman] (Eterna round: R97, puzzle: Exclusion 6)”, the “apparent KD of MS2 coat protein” value turned out to be 0.0599 µM (input ligand: FMN 200 uM) and 0.0642 µM (input ligand: none).
Consider “AAAUAACAAGCAAGAUCCUACAUGAGGAUCACCCAUGUGCUCGUCUUAAUAAGUACUAUCACGAAAGUGAUAGUACA [Mat - Sensor v3 - turn-off var 1 - Eli Mod - D60] (puzzle: Sensor v3, turn-off variant 1)”, for which the “apparent KD of MS2 coat protein” value under setting [2] was determined as 0.383 µM, the “apparent KD of MS2 coat protein” value under setting [3] was 0.383 µM and the “apparent KD of MS2 coat protein” value under setting [4] came out at 0.437 µM.
Consider “AAAUAGAAUGAGGAUAUCGAAUUAUAUAUAGUACGAGAAGGCAUUACAUGAGGAUCACCCAUGUUUUGUUGGGA [JR_Ex6_Sub001] (Eterna round: R97, puzzle: Exclusion 6)”, for which the “apparent KD of MS2 coat protein” value is 0.073 µM (input ligand: FMN 200 uM) and 0.0276 µM (input ligand: none).
As to “AAAUAGCUUGAGGAUAUUGGACUGGAUUCAGUGCGAGAAGGCAAGACAUGAGGAUCACCCAUGUUGUGUUGGGA [EX6 #10] (Eterna round: R97, puzzle: Exclusion 6)”, the “apparent KD of MS2 coat protein” value is, setting by setting: (input ligand: FMN 200 uM) 0.18 µM; (input ligand: none) 0.0916 µM.
Turning to “AAAUAGUAGCAGGAUAUGAGUAUUAUUGGAAGCUCAGAAGGGCUGACAUGAGGAUCACCCAUGUGUUAUGUCGG [Eternabot (L1) Solution 54] (Eterna round: R97, puzzle: Exclusion 6)”, the “apparent KD of MS2 coat protein” value was determined as 0.0491 µM (input ligand: FMN 200 uM) and 0.177 µM (input ligand: none).
The matching figures for “AAAUAGUCAGGAUAUACAUGAGGAUCACCCAUGUAAACUUUUAGUUUAAUUUGAAUGUGUAGAAGGGACAUAAA [Ex3 #50] (Eterna round: R97, puzzle: Exclusion 3)”: 0.0314 µM and 0.0293 µM.
For “AAAUCACAUGAGGAUCACCCAUGUCAGGAUAUCGACUGAACAGCUUCGGCUGUUCAGUCGAGAAGGGACAAUUA [Brourdxlusion 1 - Jieux - Exclusion 1] (Eterna round: R97, puzzle: Exclusion 1)”, the “apparent KD of MS2 coat protein” value was found to be 0.133 µM (input ligand: FMN 200 uM) and 0.0432 µM (input ligand: none).
The matching figures for “AAAUCAGAGGAGGAUAUGGUAUAGGAAAUGGUGCCAGAAGGUUUCACAUGAGGAUCACCCAUGUCAAAUAGUGA [EX6 #62] (Eterna round: R97, puzzle: Exclusion 6)”: 0.0492 µM and 0.0604 µM.
